Series [1] concerns the target NCp7 (nucleocapsid protein, Zn2.NCp7(1-55)) (HIV-1) (UniProt P35962). The conditions noted are these: virtually no change in Kd.
Series [2] shares this target. The following applies: Trp assay; virtually identical Kd.
Series [3] deals with T1, NCp7 (nucleocapsid protein, Zn2.NCp7(1-55)) (HIV-1, UniProt P35962 SEQ:1-55).
T1 chain: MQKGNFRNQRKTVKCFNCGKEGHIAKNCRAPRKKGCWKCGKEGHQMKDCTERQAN
Put plainly: Trp assay; K2 similar to that of SL3 RNA. The conditions noted are these: label: 5'-dabcyl, T-FAM at 17 of the all-DNA strand; tethered duplex with hairpins (O-form favoured).

The target in series [4] is T1, NCp7 (nucleocapsid protein, …). Put plainly: equilibration with NCp7 within a minute at 10 nM switch. The conditions noted are these: label: 5'-dabcyl, T-FAM at 17 of the all-DNA strand; tethered duplex switch.

In series [1], SL3 A315-U322 displayed a binding signal (fold Kd vs SL3) of 1.

SL3 16mer registered a binding signal (fold Kd vs SL3 20mer) in series [2] of 1.

SL3 C315-G returned a binding signal (fold Kd vs SL3) in series [1] of 1.

The molecule SL3 G316-C321 registered a binding signal (fold Kd vs SL3) in series [1] of 1.

B1: M2 tethered switch (mixed)
DNA: GCATGCCTCCGCATGCTCACAGCACGACTCAGATGG
mixed: CCATCTGAGTCGTGCACGCUAGCGGUGGCUAGC
modifications: DNA strand / DNA-RNA chimera (UAGCGGUGGCUAGC is RNA)
Consider B1, for which, in series [3], the binding signal is ~1 fold K2 vs SL3 RNA.

B2: M3 tethered switch (mixed)
DNA: GCTATCCACCGATAGCTCACAGCACGACTCAGATGG
mixed: B1 mixed
modifications: DNA strand / DNA-RNA chimera (UAGCGGUGGCUAGC is RNA)
With B2, in series [4], the binding result is “binds”.

(Values after patent US20110059555, “BRANCHED AND MULTI-CHAIN NUCLEIC ACID SWITCHES FOR SENSING AND SCREENING” (Syracuse University, published 2011).)
